Source: patent publication US20140335016A1 (PROCLARA BIOSCIENCES, published 2014)

Tests used:
[1] = target: T1, amyloid-β 1-42 fibers (fAβ42) (human, UniProt P05067 672-713); assay: cell-based or functional assay
[2] = target: T1, amyloid-β 1-42 fibers (fAβ42); assay: SPR, fAβ immobilized on the chip, 10^14 phage/mL

T1 sequence (P05067 672-713 limits assumed): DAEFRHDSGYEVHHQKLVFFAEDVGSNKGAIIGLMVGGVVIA

Binder | ThT fluorescence assay, IC50 [1] [nM] | Kd [2] [nM]
recombinant soluble g3p fragment comprising the N1 and N2 domains, rs-g3p(N1N2), Construct 3 (other) MAETVESCLAKSHTENSFTNVWKDDKTLDRYANYEGCLWNATGVVVCTGDETQCYGTWVPIGLAIPENEGGGSEGGGSEGGGSEGGGTKPPEYGDTPIPGYTYINPLDGTYPPGTEQNPANPNPSLEESQPLNTFMFQNNRFRNRQGALTVYTGTVTQGTDPVKTYYQYTPVSSKAMYDAYWNGKFRDCAFHSGFNEDLFVCEYQGQSSDLPQPPVNAPSGHHHHHH | ~20 | –
M13 filamentous bacteriophage (construct not stated) (other, Whole phage particle; also called M13 phage; wildtype M13) AETVESCLAKPHTENSFTNVWKDDKTLDRYANYEGCLWNATGVVVCTGDETQCYGTWVPIGLAIPENEGGGSEGGGSEGGGSEGGGTKPPEYGDTPIPGYTYINPLDGTYPPGTEQNPANPNPSLEESQPLNTFMFQNNRFRNRQGALTVYTGTVTQGTDPVKTYYQYTPVSSKAMYDAYWNGKFRDCAFHSGFNEDPFVCEYQGQSSDLPQPPVNAGGGSGGGSGGGSEGGGSEGGGSEGGGSEGGGSGGGSGSGDFDYEKMANANKGAMTENADENALQSDAKGKLDSVATDYGAAIDGFIGDVSGLANGNGATGDFAGSNSQMAQVGDGDNSPLMNNFRQYLPSLPQSVECRPFVFSAGKPYEFSIDCDKINLFRGVFAFLLYVATFMYVFSTFANILRNKES | – | ~4
